The source of these data is article PMC8805405 (Journal of Nanobiotechnology, 2022).

Read-outs that look alike come from different tables or passages of the source.

This assay concerns the target T1, recombinant human TNF-α (Homo sapiens, UniProt P01375).
T1 construct: tumor necrosis factor alpha, human, recombinant; also called tumor necrosis factor (TNF)-α; source: bought: R&D Systems
In words: BLI; BLItz; human TNF-α (5 μg/mL in 10 mM acetate, pH 5) immobilised on AR2G biosensors by EDC/s-NHS; various concentrations of antibody at room temperature; global fit, BLItz Pro 1.2.

T1 sequence (P01375 77-233): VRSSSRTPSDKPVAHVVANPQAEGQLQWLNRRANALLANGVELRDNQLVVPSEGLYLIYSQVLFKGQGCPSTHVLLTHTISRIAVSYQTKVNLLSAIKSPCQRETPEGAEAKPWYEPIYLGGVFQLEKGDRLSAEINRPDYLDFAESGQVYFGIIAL

B1: humanized anti-TNF-α mAb C5 (C + b) (antibody, V domains shown)
VH: EVQLVESGGGLVKPGGSLRLSCAASGFTFSNHWMNWVRQAPGKGLEWVGEIRSKSINSATHYAAPVKGRFTISRDDSKNTLYLQMNSLKTEDTAVYYCTRNYYGSTYDYWGQGTTVTVSS
VL: EIVLTQSPDFQSVTPKEKVTITCRASQSIGSSLHWYQQKPDQSPKLLIKYASQSFSGVPSRFSGSGSGTDFTLTINSLEAEDAATYYCHQSSSWPFTFGQGTKLEIK
What is called Kd is the free concentration of one partner at which half of the binding sites on the other are occupied at equilibrium, for simple one-to-one binding. By koff is commonly meant a measure of how fast the partners let go of each other. Usually kon stands for the second-order rate constant of association. Turning to B1, the Kd turned out to be 17.7 nM, the koff is 0.000475 s⁻¹ and the kon was 26800 M⁻¹ s⁻¹.

B2: humanized anti-TNF-α mAb C1 (A + a) (antibody, V domains shown)
VH: EVQLVESGGGLVKPGGSLRLSCAASGFTFSNHWMNWVRQAPGKGLEWVGEIRSKSINSATHYAESVKGRFTISRDDSKNTLYLQMNSLKTEDTAVYYCTRNYYGSTYDYWGQGTTVTVSS
VL: EIVLTQSPDFQSVTPKEKVTITCRASQFVGSSIHWYQQKPDQSPKLLIKYASESMSGVPSRFSGSGSGTDFTLTINSLEAEDAATYYCQQSHSWPFTFGQGTKLEIK
notes: VH grafting condition a (Remicade CDRs on human germline IGHV3-15*07-JH5); heavy-chain constant region; VL grafting condition A (Remicade CDRs on human germline IGKV6-21*01-JK2); light-chain constant region; source: Expi293, transfected, purified (protein A sepharose)
Turning to B2, under “both partners purified”, the Kd was 0.935 nM, the koff came to 0.000134 s⁻¹ and the kon stood at 143000 M⁻¹ s⁻¹.

B3: humanized anti-TNF-α mAb C3 (B + b) (antibody, V domains shown)
VH: EVQLVESGGGLVKPGGSLRLSCAASGFTFSNHWMNWVRQAPGKGLEWVGEIRSKSINSATHYAAPVKGRFTISRDDSKNTLYLQMNSLKTEDTAVYYCTRNYYGSTYDYWGQGTTVTVSS
VL: EIVLTQSPDFQSVTPKEKVTITCRASQFIGSSLHWYQQKPDQSPKLLIKYASQSFSGVPSRFSGSGSGTDFTLTINSLEAEDAATYYCHQSHSWPFTFGQGTKLEIK
notes: VH grafting condition b (Remicade CDRs on human germline IGHV3-15*07-JH5); as the heavy chain of m4; heavy-chain constant region; VL grafting condition B (Remicade CDRs on human germline IGKV6-21*01-JK2); light-chain constant region; source: Expi293, transfected, purified (protein A sepharose)
Take B3: for the setting “both partners purified”, the Kd came out at 5.5 nM, the koff is 0.00015 s⁻¹ and the kon worked out at 27200 M⁻¹ s⁻¹.
